Test results published in article PMC11830286, “Protein identification using Cryo-EM and artificial intelligence guides improved sample purification” (Journal of Structural Biology: X, 2025).

Target: the molecule itself
Test: cryo-EM structure; single particle analysis of the SEC peak of the nanoparticle preparation purified without glycine or arginine; octahedral symmetry enforced, 2.51 Å; about 0.3 mg/mL, buffer with DDM

B1: dihydrolipoamide succinyltransferase (DLST) (enzyme, E. coli BL21 (DE3), UniProt P0AFG6 1-405, looked up)
chain: MSSVDILVPDLPESVADATVATWHKKPGDAVVRDEVLVEIETDKVVLEVPASADGILDAVLEDEGTTVTSRQILGRLREGNSAGKETSAKSEEKASTPAQRQQASLEEQNNDALSPAIRRLLAEHNLDASAIKGTGVGGRLTREDVEKHLAKAPAKESAPAAAAPAAQPALAARSEKRVPMTRLRKRVAERLLEAKNSTAMLTTFNEVNMKPIMDLRKQYGEAFEKRHGIRLGFMSFYVKAVVEALKRYPEVNASIDGDDVVYHNYFDVSMAVSTPRGLVTPVLRDVDTLGMADIEKKIKELAVKGRDGKLTVEDLTGGNFTITNGGVFGSLMSTPIINPPQSAILGMHAIKDRPMAVNGQVEILPMMYLALSYDHRLIDGRESVGFLVTIKELLEDPTRLLLDV
notes: dihydrolipoamide succinyltransferase (DLST) of E. coli BL21(DE3), UniProt A0A140NDX4; host protein, no construct; the first 170 residues were unresolved in the cryo-EM map and only the catalytic domain was modelled; also called dihydrolipoyllysine-residue succinyltransferase; contaminant nanoparticle; source: endogenous, E. coli BL21(DE3) expression host; co-purified as a contaminant with …
  stoichiometry N: 24
